Measurements as given in patent US20250320312A1 (OXITOPE PHARMA B V, published 2025).
Residue numbers refer to the chain shown, from its start.

T1: Peptide 8: Biotin-AEAAAKEAAAKEAAAKEAAAKAAA-Tyr-acid (N-terminal biotin; C-terminal acid)
T1 construct: Control peptide without PC
T1 peptide: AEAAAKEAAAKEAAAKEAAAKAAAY

T2: Peptide 4: Biotin-AGGGGSGGGGSGGGGSAAA-Tyr-acid (N-terminal biotin; C-terminal acid)
T2 construct: Control peptide without PC
T2 peptide: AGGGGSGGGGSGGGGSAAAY

B1: PcOxP_DB03_F05 (scFv, V domains shown)
VH: EVQLLESGGGLVQPGGSLRLSCAASGFTFSDYYMEWVRQAPGKGLEWVAASRNKGNDYTTAYADSVKGRFTISRDNSKNTLYLQMNSLRAEDTAVYYCARDYFGSSYWYFDVWGQGTLVTVSS
VL: DIVMTQSPDSLAVSLGERATINCTASQSVYSSKHNKHYLAWYQQKPGQPPKLLIYGASNPYIGVPDRFSGSGSGTDFTLTISSLQAEDVAVYYCAQFYSYPLTFGGGTKVEIK
notes: scFv in periplasmic extract
B2: PcOxP_DB04_D12 (scFv, V domains shown)
VH: B1 VH with Y32Q, G55A, Y58W, A61E, F103Y
VL: B1 VL with Q27E, V29L, N35K, K36V, P60R
notes: scFv in periplasmic extract
B3: PcOxP_DB03_H02 (scFv, V domains shown)
VH: B1 VH with F29E, Y32F, G55Y, A61E, F103Y
VL: B1 VL with Q27E, V29L, N35K, K36V, S58Q, P60R
notes: scFv in periplasmic extract
B4: PcOxP_DB04_A04 (scFv, V domains shown)
VH: B1 VH with Y32F, G55W, A61E, F103Y
VL: B1 VL with H34N, N35K, P60R, S99R
notes: scFv in periplasmic extract
B5: PcOxP_DB03_F07 (scFv, V domains shown)
VH: B1 VH with F29Q, Y32F, D57S, F103Y
VL: B1 VL with Q27E, V29L, S32G, N35K, K36V, P60R
notes: scFv in periplasmic extract
B6: PcOxP_DB03_G11 (scFv, V domains shown)
VH: B1 VH with D31S, G55A, A61E, F103Y
VL: B1 VL with T24K, A25S, Y30L, N35K, H37N, P60R
notes: scFv in periplasmic extract
B7: PcOxP_DB04_D07 (scFv, V domains shown)
VH: B1 VH with N53W, G55A, A61E, F103Y
VL: B1 VL with Q27E, V29L, N35K, K36V, P60R, S99T
notes: scFv in periplasmic extract
B8: PcOxP_DB04_B07 (scFv, V domains shown)
VH: B1 VH with F27P, Y32F, G55A, D57G, A61E, F103Y
VL: B1 VL with Q27E, V29L, N35K, K36V, P60R
notes: scFv in periplasmic extract
B9: PcOxP_DB04_D09 (scFv, V domains shown)
VH: B1 VH with F29D, Y32F, G55A, A61E, F103Y
VL: B1 VL with T24K, A25S, Q27E, V29L, H34N, N35K, K36V, P60R, I62S
notes: scFv in periplasmic extract
B10: PcOxP_DB04_B10 (scFv, V domains shown)
VH: B1 VH with F29D, Y32F, G55A, D57G, A61E, F103Y
VL: B1 VL with Q27E, V29L, N35K, K36V, P60R, Y61P, A95G
notes: scFv in periplasmic extract
B11: PcOxP_DB04_B12 (scFv, V domains shown)
VH: B1 VH with G55A, A61E, F103Y
VL: B1 VL with Q27E, V29L, N35K, K36V, P60R, Q96A
notes: scFv in periplasmic extract
B12: PcOxP_DB03_G01 (scFv, V domains shown)
VH: B1 VH with Y32G, G55A, D57F, A61E, Y102H, F103Y
VL: B1 VL with Q27E, V29L, N35K, K36V, P60R, S99N
notes: scFv in periplasmic extract
B13: PcOxP_DB04_D10 (scFv, V domains shown)
VH: B1 VH with F29G, Y32F, N53W, G55A, A61E, F103Y
VL: B1 VL with Q27E, V29L, S32T, N35K, K36V, N59H, P60R, S99Q
notes: scFv in periplasmic extract
B14: PcOxP_DB03_G12 (scFv, V domains shown)
VH: B1 VH with G55Y, A61E, F103Y
VL: B1 VL with T24K, A25S, Q27E, N35K, P60R
notes: scFv in periplasmic extract
B15: PcOxP_DB03_H10 (scFv, V domains shown)
VH: B1 VH with S30D, Y32F, K54E, G55A, A61E, F103Y
VL: B1 VL with Q27E, V29L, N35K, K36V, S58G, P60R, S99H
notes: scFv in periplasmic extract
B16: PcOxP_DB04_B01 (scFv, V domains shown)
VH: B1 VH with F29Q, Y32F, G55A, A61E, F103Y, S105E
VL: B1 VL with Q27V, V29L, N35K, K36V, A57P, P60R
notes: scFv in periplasmic extract
B17: PcOxP_DB04_E06 (scFv, V domains shown)
VH: B1 VH with F29G, Y32F, G55A, A61E, F103Y, S106P
VL: B1 VL with Q27E, V29L, N35K, K36V, P60R
notes: scFv in periplasmic extract
B18: PcOxP_DB03_F11 (scFv, V domains shown)
VH: B1 VH with G55A, D57S, F103Y
VL: B1 VL with A25S, V29L, Y30L, S31Y, K33S, H34N, N35K, P60R, S99E
notes: scFv in periplasmic extract
B19: PcOxP_DB04_C11 (scFv, V domains shown)
VH: B1 VH with G55A, A61E, F103Y
VL: B1 VL with Q27E, V29L, N35K, K36V, N59H, P60R, Y61Q
notes: scFv in periplasmic extract
B20: PcOxP_DB04_C10 (scFv, V domains shown)
VH: B1 VH with Y32G, S51I, G55A, A61E, F103Y, S106H
VL: B1 VL with Q27E, V29L, N35K, K36V, P60R
notes: scFv in periplasmic extract
B21: PcOxP_DB04_E12 (scFv, V domains shown)
VH: B1 VH with Y32F, G55A, A61E, F103Y
VL: B1 VL with Q27E, V29L, N35K, K36V, P60R, Y61V, S99I
notes: scFv in periplasmic extract
B22: PcOxP_DB04_E05 (scFv, V domains shown)
VH: B1 VH with F27N, Y32F, G55A, D57Y, A61E, F103Y
VL: B1 VL with Q27E, V29L, N35K, K36V, P60R
notes: scFv in periplasmic extract
B23: PcOxP_DB04_B11 (scFv, V domains shown)
VH: B1 VH with F27D, Y32F, N53W, G55A, A61E, F103Y
VL: B1 VL with Q27E, V29L, N35K, K36V, P60R
notes: scFv in periplasmic extract
B24: PcOxP_DB04_A05 (scFv, V domains shown)
VH: B1 VH with Y32F, M34I, G55A, A61E, F103Y
VL: B1 VL with Q27E, V29L, N35K, K36V, P60R, Y61E
notes: scFv in periplasmic extract
B25: PcOxP_DB03_G09 (scFv, V domains shown)
VH: B1 VH with T28S, Y32F, G55W, A61E, F103Y
VL: B1 VL with Q27E, V29L, N35K, K36V, P60R, Q96S
notes: scFv in periplasmic extract
B26: PcOxP_DB04_E08 (scFv, V domains shown)
VH: B1 VH with F29S, Y32F, M34L, G55W, A61E, F103Y
VL: B1 VL with Q27E, V29L, N35K, K36V, A57V, P60R
notes: scFv in periplasmic extract
B27: PcOxP_DB04_D05 (scFv, V domains shown)
VH: B1 VH with K54V, G55A, A61E, F103Y
VL: B1 VL with Q27T, V29L, N35K, K36V, P60R
notes: scFv in periplasmic extract
B28: PcOxP_DB04_C09 (scFv, V domains shown)
VH: B1 VH with D31S, G55A, A61E, F103Y, G104L
VL: B1 VL with Q27E, V29L, S32P, N35K, K36V, S58E, P60R
notes: scFv in periplasmic extract
B29: PcOxP_DB04_D01 (scFv, V domains shown)
VH: B1 VH with F103Y
VL: B1 VL with Q27E, V29L, N35K, K36V, N59Q, P60R
notes: scFv in periplasmic extract
B30: PcOxP_DB04_A11 (scFv, V domains shown)
VH: B1 VH with G55A, D57T, A61E, F103Y
VL: B1 VL with Q27E, Y30L, N35K, H37N, N59T, P60R
notes: scFv in periplasmic extract

Target: Peptide 1: Biotin-…-[Tyr(PC)]-acid
Assay: scFv ELISA

OD450 [OD450] | Binder
0.73 | B1
0.64 | B2
1.07 | B3
1.09 | B4
0.53 | B5
0.26 | B6
1.02 | B7
0.93 | B8
0.41 | B9
1.05 | B10
0.13 | B11
0.66 | B12
1.14 | B13
1.57 | B14
0.24 | B15
0.45 | B16
1.04 | B17
1.47 | B18
0.81 | B19
0.54 | B20
1.03 | B21
0.67 | B22
0.26 | B23
0.72 | B24
0.74 | B25
1.39 | B26
0.87 | B27
0.55 | B28
1.23 | B29
0.64 | B30

Target: BSA (UniProt P02769)
Assay: scFv ELISA

BSA, sequence (P02769 25-607 limits assumed): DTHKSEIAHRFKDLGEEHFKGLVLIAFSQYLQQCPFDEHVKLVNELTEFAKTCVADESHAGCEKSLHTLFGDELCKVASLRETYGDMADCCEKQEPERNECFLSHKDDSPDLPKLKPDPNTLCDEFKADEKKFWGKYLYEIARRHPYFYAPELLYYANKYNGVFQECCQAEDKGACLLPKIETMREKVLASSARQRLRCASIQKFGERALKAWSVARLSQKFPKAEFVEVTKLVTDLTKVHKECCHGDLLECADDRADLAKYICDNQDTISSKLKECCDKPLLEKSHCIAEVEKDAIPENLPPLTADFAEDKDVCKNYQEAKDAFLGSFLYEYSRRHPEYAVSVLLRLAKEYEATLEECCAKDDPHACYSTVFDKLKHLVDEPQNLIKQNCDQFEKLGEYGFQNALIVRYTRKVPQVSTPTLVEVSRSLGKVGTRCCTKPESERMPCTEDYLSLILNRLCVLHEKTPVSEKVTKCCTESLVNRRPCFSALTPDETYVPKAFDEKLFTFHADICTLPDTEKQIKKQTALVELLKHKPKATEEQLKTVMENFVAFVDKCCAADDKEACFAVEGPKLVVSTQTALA

OD450 [OD450] | Binder
0.06 | B1
0.08 | B2
0.05 | B3
0.11 | B4
0.08 | B5
0.1 | B6
0.08 | B7
0.09 | B8
0.06 | B9
0.06 | B10
0.09 | B11
0.09 | B12
0.07 | B13
0.08 | B14
0.05 | B15
0.06 | B16
0.07 | B17
0.12 | B18
0.07 | B19
0.08 | B20
0.07 | B21
0.09 | B22
0.08 | B23
0.06 | B24
0.07 | B25
0.09 | B26
0.08 | B27
0.11 | B28
0.07 | B29
0.1 | B30

Target: Peptide 5: Biotin-…-[Tyr(PC)]-acid
Assay: scFv ELISA

OD450 [OD450] | Binder
1.04 | B1
1.03 | B2
1.69 | B3
1.9 | B4
1.19 | B5
0.72 | B6
1.05 | B7
1.33 | B8
0.83 | B9
1.56 | B10
0.34 | B11
1.19 | B12
1.35 | B13
1.91 | B14
0.39 | B15
0.78 | B16
1.59 | B17
1.43 | B18
1.34 | B19
1.03 | B20
1.39 | B21
1.03 | B22
0.31 | B23
1.29 | B24
1.07 | B25
2.01 | B26
1.27 | B27
1.21 | B28
1.66 | B29
1.6 | B30

Target: T1, Peptide 8: …
Assay: scFv ELISA
Method in brief: (§1)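 Bound scFv was read as OD450 after HRP–anti-V5 detection, TMB development and HCl stop. PPE with BSA was incubated 1 h at RT on BSA-blocked wells coated overnight at 4° C. with peptide, or on streptavidin wells loaded 1 h with biotinylated PC-peptides at 1 μg/mL.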

OD450 [OD450] | Binder
0.04 | B1
0.05 | B2
0.04 | B3
0.08 | B4
0.05 | B5
0.05 | B6
0.05 | B7
0.05 | B8
0.08 | B9
0.04 | B10
0.04 | B11
0.05 | B12
0.05 | B13
0.05 | B14
0.07 | B15
0.05 | B16
0.05 | B17
0.06 | B18
0.04 | B19
0.05 | B20
0.05 | B21
0.05 | B22
0.05 | B23
0.04 | B24
0.05 | B25
0.05 | B26
0.06 | B27
0.06 | B28
0.06 | B29
0.08 | B30

Target: T2, Peptide 4: …
Assay: scFv ELISA
Method in brief: as §1

OD450 [OD450] | Binder
0.05 | B1
0.06 | B2
0.05 | B3
0.08 | B4
0.05 | B5
0.05 | B6
0.05 | B7
0.06 | B8
0.05 | B9
0.05 | B10
0.04 | B11
0.05 | B12
0.05 | B13
0.06 | B14
0.04 | B15
0.05 | B16
0.04 | B17
0.06 | B18
0.05 | B19
0.06 | B20
0.05 | B21
0.06 | B22
0.05 | B23
0.04 | B24
0.05 | B25
0.06 | B26
0.05 | B27
0.07 | B28
0.06 | B29
0.07 | B30
